T1: XSA1 (Xenopus laevis (endogenous in egg …, UniProt Q9DGN1 1-1265))
T1 sequence: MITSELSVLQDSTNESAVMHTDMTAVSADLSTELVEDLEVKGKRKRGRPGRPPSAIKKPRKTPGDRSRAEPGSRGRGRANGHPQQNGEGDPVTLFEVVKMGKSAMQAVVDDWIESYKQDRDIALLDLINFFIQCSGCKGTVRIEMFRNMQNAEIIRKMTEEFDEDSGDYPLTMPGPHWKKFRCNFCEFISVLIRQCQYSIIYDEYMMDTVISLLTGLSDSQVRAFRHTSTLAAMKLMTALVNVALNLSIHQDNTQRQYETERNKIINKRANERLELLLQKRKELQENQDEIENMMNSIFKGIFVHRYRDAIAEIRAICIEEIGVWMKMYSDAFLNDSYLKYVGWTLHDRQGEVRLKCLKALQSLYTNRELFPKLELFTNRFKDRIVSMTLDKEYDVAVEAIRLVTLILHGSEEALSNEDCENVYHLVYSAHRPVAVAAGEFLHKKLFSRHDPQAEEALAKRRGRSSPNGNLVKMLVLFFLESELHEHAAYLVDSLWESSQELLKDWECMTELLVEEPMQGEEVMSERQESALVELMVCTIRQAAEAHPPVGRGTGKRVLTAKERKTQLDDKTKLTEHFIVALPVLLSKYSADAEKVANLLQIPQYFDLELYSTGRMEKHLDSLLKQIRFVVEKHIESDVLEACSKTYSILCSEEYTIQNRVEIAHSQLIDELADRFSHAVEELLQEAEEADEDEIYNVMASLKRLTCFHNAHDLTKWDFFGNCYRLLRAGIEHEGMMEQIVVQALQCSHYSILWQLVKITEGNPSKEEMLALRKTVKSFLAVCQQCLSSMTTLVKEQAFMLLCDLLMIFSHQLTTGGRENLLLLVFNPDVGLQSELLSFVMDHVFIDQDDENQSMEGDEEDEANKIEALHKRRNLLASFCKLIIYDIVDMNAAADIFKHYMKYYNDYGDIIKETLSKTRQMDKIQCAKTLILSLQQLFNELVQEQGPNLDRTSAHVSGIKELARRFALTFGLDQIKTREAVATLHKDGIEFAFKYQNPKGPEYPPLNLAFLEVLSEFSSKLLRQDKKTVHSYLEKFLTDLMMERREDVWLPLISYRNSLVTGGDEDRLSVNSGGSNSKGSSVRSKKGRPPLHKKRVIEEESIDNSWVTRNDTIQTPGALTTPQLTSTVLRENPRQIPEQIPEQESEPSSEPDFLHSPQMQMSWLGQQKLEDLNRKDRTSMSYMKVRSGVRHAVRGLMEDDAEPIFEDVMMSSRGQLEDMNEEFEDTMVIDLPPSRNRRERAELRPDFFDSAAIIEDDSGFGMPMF

T2: XSA2 (Xenopus laevis (endogenous in egg …, UniProt Q9DGN0 1-1194))
T2 sequence: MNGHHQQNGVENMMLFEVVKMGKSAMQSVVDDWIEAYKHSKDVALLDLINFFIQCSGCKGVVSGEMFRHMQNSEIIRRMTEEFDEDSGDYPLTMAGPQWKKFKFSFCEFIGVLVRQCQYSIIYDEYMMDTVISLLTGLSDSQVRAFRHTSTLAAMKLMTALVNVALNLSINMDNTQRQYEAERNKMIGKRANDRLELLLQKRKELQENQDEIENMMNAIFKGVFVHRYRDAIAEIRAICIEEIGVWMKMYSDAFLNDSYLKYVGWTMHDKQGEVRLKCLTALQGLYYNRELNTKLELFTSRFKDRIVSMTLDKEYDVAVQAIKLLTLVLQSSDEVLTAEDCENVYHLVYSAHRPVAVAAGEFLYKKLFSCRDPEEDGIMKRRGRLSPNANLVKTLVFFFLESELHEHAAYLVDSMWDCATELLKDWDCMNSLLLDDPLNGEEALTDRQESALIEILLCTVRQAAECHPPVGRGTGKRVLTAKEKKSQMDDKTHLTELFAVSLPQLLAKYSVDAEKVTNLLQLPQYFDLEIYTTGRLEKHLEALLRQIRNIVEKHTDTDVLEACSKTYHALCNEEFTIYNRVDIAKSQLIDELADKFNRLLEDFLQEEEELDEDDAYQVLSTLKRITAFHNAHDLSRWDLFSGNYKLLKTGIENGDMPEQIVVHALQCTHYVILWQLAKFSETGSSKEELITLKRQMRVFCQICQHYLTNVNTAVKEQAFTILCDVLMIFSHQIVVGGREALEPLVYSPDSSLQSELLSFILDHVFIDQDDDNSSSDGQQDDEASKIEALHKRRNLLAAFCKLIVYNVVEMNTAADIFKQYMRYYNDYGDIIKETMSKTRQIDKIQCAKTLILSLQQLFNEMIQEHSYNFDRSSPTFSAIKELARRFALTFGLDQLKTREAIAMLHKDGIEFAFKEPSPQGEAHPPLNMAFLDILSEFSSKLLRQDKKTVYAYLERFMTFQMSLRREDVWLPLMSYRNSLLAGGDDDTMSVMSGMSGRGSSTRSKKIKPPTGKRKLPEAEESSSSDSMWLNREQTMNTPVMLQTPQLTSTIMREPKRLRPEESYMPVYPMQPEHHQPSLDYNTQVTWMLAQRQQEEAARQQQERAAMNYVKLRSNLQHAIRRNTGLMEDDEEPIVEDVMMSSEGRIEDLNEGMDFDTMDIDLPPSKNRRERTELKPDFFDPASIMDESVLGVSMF

T3: hSA2 (human (endogenous in HeLa), UniProt Q8N3U4 1-1231)
T3 sequence: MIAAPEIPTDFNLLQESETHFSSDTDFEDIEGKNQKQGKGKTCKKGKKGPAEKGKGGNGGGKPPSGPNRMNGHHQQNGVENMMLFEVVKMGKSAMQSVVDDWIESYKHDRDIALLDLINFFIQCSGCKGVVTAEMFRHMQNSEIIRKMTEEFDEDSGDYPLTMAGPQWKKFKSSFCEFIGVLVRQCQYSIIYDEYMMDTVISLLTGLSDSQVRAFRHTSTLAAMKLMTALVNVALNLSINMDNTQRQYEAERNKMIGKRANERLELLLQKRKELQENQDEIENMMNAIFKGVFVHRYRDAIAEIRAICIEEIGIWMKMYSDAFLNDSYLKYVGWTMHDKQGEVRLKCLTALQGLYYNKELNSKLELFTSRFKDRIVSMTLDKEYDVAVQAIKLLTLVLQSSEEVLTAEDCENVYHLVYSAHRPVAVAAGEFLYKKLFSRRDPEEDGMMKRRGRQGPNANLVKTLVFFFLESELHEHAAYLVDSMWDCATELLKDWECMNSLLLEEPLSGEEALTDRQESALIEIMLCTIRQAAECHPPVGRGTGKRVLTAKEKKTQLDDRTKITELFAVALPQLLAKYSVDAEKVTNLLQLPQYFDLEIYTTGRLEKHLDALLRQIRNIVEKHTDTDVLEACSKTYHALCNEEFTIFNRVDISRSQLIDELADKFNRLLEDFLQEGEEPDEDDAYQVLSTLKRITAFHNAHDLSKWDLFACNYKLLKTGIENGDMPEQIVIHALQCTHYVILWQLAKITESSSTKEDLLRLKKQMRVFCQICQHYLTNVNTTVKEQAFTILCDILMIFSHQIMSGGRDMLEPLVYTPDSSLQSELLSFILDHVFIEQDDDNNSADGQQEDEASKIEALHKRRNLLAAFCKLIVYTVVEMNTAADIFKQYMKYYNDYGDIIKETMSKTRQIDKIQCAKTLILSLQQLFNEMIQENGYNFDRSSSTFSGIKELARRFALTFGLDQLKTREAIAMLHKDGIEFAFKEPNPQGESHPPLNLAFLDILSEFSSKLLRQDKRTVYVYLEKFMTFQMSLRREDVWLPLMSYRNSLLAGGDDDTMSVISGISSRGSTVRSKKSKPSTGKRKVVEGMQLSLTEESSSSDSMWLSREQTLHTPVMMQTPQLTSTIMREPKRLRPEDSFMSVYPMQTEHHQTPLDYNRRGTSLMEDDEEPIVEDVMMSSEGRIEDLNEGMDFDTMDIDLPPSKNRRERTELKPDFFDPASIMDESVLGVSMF

T4: hSA1 (human (endogenous in HeLa), UniProt Q8WVM7 1-1258)
T4 sequence: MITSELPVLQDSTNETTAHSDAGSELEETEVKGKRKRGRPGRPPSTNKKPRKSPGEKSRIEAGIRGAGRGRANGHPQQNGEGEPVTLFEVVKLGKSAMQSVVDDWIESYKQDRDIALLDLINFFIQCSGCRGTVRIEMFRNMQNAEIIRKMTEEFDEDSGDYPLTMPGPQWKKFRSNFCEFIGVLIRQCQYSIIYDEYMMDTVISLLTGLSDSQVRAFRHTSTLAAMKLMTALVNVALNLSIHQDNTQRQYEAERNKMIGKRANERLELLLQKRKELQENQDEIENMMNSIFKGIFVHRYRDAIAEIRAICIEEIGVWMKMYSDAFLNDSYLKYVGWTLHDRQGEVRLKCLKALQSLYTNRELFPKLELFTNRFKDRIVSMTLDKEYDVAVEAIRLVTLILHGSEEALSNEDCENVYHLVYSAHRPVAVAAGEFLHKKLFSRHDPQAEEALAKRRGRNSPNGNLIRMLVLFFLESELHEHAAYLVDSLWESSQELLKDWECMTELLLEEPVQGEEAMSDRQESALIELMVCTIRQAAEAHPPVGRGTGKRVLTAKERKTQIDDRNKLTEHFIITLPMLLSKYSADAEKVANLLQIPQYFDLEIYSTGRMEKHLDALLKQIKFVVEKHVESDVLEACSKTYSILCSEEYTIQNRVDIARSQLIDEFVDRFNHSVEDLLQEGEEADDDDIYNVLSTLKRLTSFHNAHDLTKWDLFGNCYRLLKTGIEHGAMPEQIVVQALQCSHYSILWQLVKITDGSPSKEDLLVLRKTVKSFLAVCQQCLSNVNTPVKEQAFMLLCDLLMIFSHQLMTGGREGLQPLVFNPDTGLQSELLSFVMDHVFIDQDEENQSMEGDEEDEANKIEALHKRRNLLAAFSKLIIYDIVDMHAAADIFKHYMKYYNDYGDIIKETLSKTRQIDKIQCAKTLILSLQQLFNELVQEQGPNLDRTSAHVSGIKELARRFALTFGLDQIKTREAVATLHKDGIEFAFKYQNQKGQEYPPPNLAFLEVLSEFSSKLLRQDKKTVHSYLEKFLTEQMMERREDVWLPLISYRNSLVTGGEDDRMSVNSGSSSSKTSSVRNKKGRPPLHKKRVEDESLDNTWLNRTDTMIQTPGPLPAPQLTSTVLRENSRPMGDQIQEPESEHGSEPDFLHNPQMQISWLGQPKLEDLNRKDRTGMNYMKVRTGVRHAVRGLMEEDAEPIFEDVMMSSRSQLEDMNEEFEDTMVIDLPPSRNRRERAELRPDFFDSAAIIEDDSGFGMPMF


Tests used:
Experiment in all cases: co-IP
XSA1 = target: T1, XSA1
XSA2 = target: T2, XSA2
hSA2 = target: T3, hSA2
hSA1 = target: T4, hSA1

Row | percent depleted from the extract by anti-XSA1 (XSA1) [%] | percent depleted from the extract by anti-XSA2 (XSA2) [%] | percent removed from the extract by anti-XSA2 (hSA2) [%] | percent removed from the extract by anti-XSA1 (hSA1) [%] | Binder
1 | ~90 | ~10 | – | – | XRAD21 (natural protein) MFYAHFVLSKRGPLAKIWLAAHWDKKLTKAHVFECNLESSVESIICPKVKMALRTSGHLLLGVVRIYHRKAKYLLADCNEAFIKIKMAFRPGVVDLPEENREAAYNAITLPEEFHDFDQPLPDLDDIDVAQQFSLNQSRVEEITMREEVSNINILQDNDFGDFGMDDREMMREGSAFEDDMLTTNASNLKLEPEQSTSQLNEKSNHLEYDDQYKDDNFGEGNEGGILDDKLLSNDAGGIFDDPPAMPEEGVAMPEQPVHDDLDDDDNVSMGAPDSPDSVDPVEPLPTMTDQTTLVPNEEEAFALEPIDITVKETKAKRKRKLIVDSVKELDSKTIRAQLSDYSDIVTTLDLAPPTKKLMMWKETGGVEKLFSLPAQPLWNTRLLKLFTRCLTPLVLDDLRKRRKGGEADNLDEFLKEFENPEVPREELRPQDVIDQPILEEASHLQESLMEGSRTHLDDTIMPPPPPKQGVKRDSLQMEPEPMPMMQEAEPQIEMPPPPLPPPLELPPEEPQSISDLIPELNLLPEKEKEKDEEEEEEEEDTTGTEQDQEERRWNKRTQQMLHGLQRVLAKTGAESISLLDLCRNTNRKQAAAKFYSFLVLKKQQAIELTQREPYSDIVATPGPRFHTV
2 | – | – | ~75 | ~25 | hRAD21 (natural protein) MFYAHFVLSKRGPLAKIWLAAHWDKKLTKAHVFECNLESSVESIISPKVKMALRTSGHLLLGVVRIYHRKAKYLLADCNEAFIKIKMAFRPGVVDLPEENREAAYNAITLPEEFHDFDQPLPDLDDIDVAQQFSLNQSRVEEITMREEVGNISILQENDFGDFGMDDREIMREGSAFEDDDMLVSTTTSNLLLESEQSTSNLNEKINHLEYEDQYKDDNFGEGNDGGILDDKLISNNDGGIFDDPPALSEAGVMLPEQPAHDDMDEDDNVSMGGPDSPDSVDPVEPMPTMTDQTTLVPNEEEAFALEPIDITVKETKAKRKRKLIVDSVKELDSKTIRAQLSDYSDIVTTLDLAPPTKKLMMWKETGGVEKLFSLPAQPLWNNRLLKLFTRCLTPLVPEDLRKRRKGGEADNLDEFLKEFENPEVPREDQQQQHQQRDVIDEPIIEEPSRLQESVMEASRTNIDESAMPPPPPQGVKRKAGQIDPEPVMPPQQVEQMEIPPVELPPEEPPNICQLIPELELLPEKEKEKEKEKEDDEEEEDEDASGGDQDQEERRWNKRTQQMLHGLQRALAKTGAESISLLELCRNTNRKQAAAKFYSFLVLKKQQAIELTQEEPYSDIIATPGPRFHII

Source: paper PMC2175199 (The Journal of Cell Biology, 2000)
